Measured values from US20140322825A1 (UNIVERSITY OF MARYLAND BALTIMORE, published 2014).
Changes are numbered by the printed parent chain. Each block holds one binder with its values, some of them ahead of it.

Columns and labels:
[1] = biological target: T1, asialo-glycophorin A (aGPA) (human, UniProt P02724 20-150, desialylated by mild acid treatment; carries O-linked TFα (Galβ1-3GalNAcα) structures; biotinylated in the flow cytometry assays); assay: SPR (Biacore T200), lambody captured by anti-His mAb, aGPA as analyte at 312 pM to 20 nM, 1:1 Langmuir fit
T1 construct: The lambody recognises the glycans on this glycoprotein; also called asialo-GPA
T1 sequence (looked up): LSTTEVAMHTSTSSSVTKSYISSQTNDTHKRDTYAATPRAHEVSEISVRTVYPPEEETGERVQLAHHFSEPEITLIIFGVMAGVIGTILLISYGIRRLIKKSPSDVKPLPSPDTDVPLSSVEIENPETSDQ
Description: Reference subtracted and blank subtracted binding data were fitted with a 1:1 Langmuir binding model to determine the association and dissociation constants. The equilibrium dissociation constants were calculated from these values.
(§1) All SPR binding experiments were performed using Biacore T200 (GE Healthcare). The running and sample buffer was HBS-EP+ (10 mM HEPES, pH 7.4, 150 mM NaCl, 3 mM EDTA, 0.05% Polysorbate 20). All measurements were performed at 25° C. Anti-His antibody (His capture kit, GE Healthcare) was immobilized by amine coupling to Sensor Chip CM5. VLRB.aGPA.23 and Mut.10 were diluted to 10 μg/mL and injected in each cycle at 10 μL/min for 30 seconds, to capture approximately 300 RU. […] Regeneration of the anti-His surface was accomplished using a 60 second injection of 10 mM glycine-HCl pH 1.5. The reference subtracted SPR binding curves were blank subtracted, and curve fitting was performed with a 1:1 model to obtain kinetic parameters using the Biacore T200 Evaluation software.

[2] = biological target: T1, asialo-glycophorin A (aGPA); assay: SPR (Biacore T200), lambody captured via anti-His mAb, aGPA as analyte, 1:1 Langmuir fit
Description: All SPR binding experiments were performed using Biacore T200 (GE Healthcare). The running and sample buffer was HBS-EP+ (10 mM HEPES, pH 7.4, 150 mM NaCl, 3 mM EDTA, 0.05% Polysorbate 20). All measurements were performed at 25° C. Anti-His antibody (His capture kit, GE Healthcare) was immobilized by amine coupling to Sensor Chip CM5. […] Regeneration of the anti-His surface was accomplished using a 60 second injection of 10 mM glycine-HCl pH 1.5. The reference subtracted SPR binding curves were blank subtracted, and curve fitting was performed with a 1:1 model to obtain kinetic parameters using the Biacore T200 Evaluation software.

[3] = biological target: T1, asialo-glycophorin A (aGPA); assay: SPR (Biacore T200), lambody captured via anti-His mAb, aGPA as analyte
Description: as §1

Kd [1]: 1.09 nM
koff [1]: 0.000331 s⁻¹
kon [1]: 303000 M⁻¹ s⁻¹
Kd [2]: 1.1 nM
B1: lambody VLRB.aGPA.23 (as used in SPR) (other)
chain: ACPSQCSCSGTEVNCAGKSLASVPAGIPTTTRVLYLNSNQITKLEPGVFDRLANLRELHLWGNQLVSLPPGVFDNLANLEKLWLNSNQLTSLPAGLFDRLVNLEHLGLCCMKLTELPSGAFDKLTRLKQLGLDQNQLKSIPDGAFARLPSLTHVWLHTNPWDCQCTDILYLSGWVAQHSSIVGEGWPWRHSPDSAKCSGTNTPVRAVTEASTSPSKCP
notes: Dimeric, yeast-secreted lambody captured on the chip through an anti-His antibody; also called VLRB.GPA.23; not shown: 6-His and FLAG tags plus a dimerization domain

Kd [1]: 0.637 nM
koff [1]: 0.000222 s⁻¹
kon [1]: 349000 M⁻¹ s⁻¹
fold higher affinity than VLRB.aGPA.23 [3]: 1.7 fold
B2: Mut.10 (affinity-improved clone of VLRB.aGPA.23) (other)
chain: B1 chain with S19N, S86G, H105R, K112M, T208S
notes: also called clone Mut.10; not shown: 6-His and FLAG tags plus a dimerization domain
